Biological target: LTBR (form used for the KD values not stated) (human, UniProt P36941 31-227, limits assumed)
Experiment: method and format not stated

Chain of LTBR (form used for the KD values not stated) (P36941 31-227 limits assumed): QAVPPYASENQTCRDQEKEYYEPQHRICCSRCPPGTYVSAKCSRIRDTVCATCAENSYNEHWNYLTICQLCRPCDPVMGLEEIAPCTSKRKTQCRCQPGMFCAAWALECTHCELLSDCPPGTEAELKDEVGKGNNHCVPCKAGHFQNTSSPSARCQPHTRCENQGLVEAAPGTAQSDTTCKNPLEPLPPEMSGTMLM

B1: SEQ ID NO 53: stapled scFv (VL3 Y36F_S49Y_F87Y) BHA10 (VH-VL), lower affinity variant (scFv)
scFv: QVQLVQSGAEVKKPGSSVKVSCKASGYTFTTYYLHWVRQAPGCGLEWMGWIYPGNVHAQYNEKFKGRVTITADKSTSTAYMELSSLRSEDTAVYYCARSWEGFPYWGQGTTVTVSSGGGSGGGSGCPPCGGGGDIQMTQSPSSLSASVGDRVTITCKASQNVGINVAWFQQKPGKAPKSLIYSASYRYSGVPSRFSGSGSGTDFTLTISSLQPEDFATYYCQQYDTYPFTFGCGTKVEIK
notes: scFv used in COVA14107
- Kd: ~60 nM

B2: SEQ ID NO 54: stapled scFv (VH_CDR1_Y33A) BHA10 (VH-VL), lower affinity variant (scFv)
scFv: QVQLVQSGAEVKKPGSSVKVSCKASGYTFTTYALHWVRQAPGCGLEWMGWIYPGNVHAQYNEKFKGRVTITADKSTSTAYMELSSLRSEDTAVYYCARSWEGFPYWGQGTTVTVSSGGGSGGGSGCPPCGGGGDIQMTQSPSSLSASVGDRVTITCKASQNVGINVAWYQQKPGKAPKSLISSASYRYSGVPSRFSGSGSGTDFTLTISSLQPEDFATYFCQQYDTYPFTFGCGTKVEIK
notes: scFv used in COVA14108
- Kd: ~600 nM

— patent publication US20210188990A1 (published 2021)
